According to patent US20090029370A1 (TRUSTEES OF BOSTON UNIVERSITY, published 2009):

Target: T1, alpha-fragment of EGFP (alphaCys-fragment, 1-158) without oligonucleotide (Aequorea victoria, UniProt P42212 1-158 = GFP)
T1 construct: range 1-158; also called α-subunit of EGFP
Assay: fluorescence spectra after mixing the fragments in vitro

B1: beta-fragment of EGFP (betaCys-fragment, 159-234 aa) without oligonucleotide (other)
chain: not shown
notes: range 159-234; also called β-subunit of EGFP
  binding result: no binding
